Biological target: Recombinant full-length human α-synuclein (1–140) (human, UniProt P37840 1-140)
Assay: turbidity of phase separation (absorbance at 350 nm)
Details: both partners purified

B1: PrP 23–144 (Y145Stop) (domain or fragment)
chain: KKRPKPGGWNTGGSRYPGQGSPGGNRYPPQGGGGWGQPHGGGWGQPHGGGWGQPHGGGWGQPHGGGWGQGGGTHSQWNKPSKPKTNMKHMAGAAAAGAVVGGLGGYMLGSAMSRPIIHFGSD
Does B1 bind?
Result: binds

— article PMC8894376 (Nature Communications, 2022)
